Laboratory results from publication PMC5418627.

Target: T1, IRF3 (human (endogenous in HEK293T)), Q14653
T1 chain: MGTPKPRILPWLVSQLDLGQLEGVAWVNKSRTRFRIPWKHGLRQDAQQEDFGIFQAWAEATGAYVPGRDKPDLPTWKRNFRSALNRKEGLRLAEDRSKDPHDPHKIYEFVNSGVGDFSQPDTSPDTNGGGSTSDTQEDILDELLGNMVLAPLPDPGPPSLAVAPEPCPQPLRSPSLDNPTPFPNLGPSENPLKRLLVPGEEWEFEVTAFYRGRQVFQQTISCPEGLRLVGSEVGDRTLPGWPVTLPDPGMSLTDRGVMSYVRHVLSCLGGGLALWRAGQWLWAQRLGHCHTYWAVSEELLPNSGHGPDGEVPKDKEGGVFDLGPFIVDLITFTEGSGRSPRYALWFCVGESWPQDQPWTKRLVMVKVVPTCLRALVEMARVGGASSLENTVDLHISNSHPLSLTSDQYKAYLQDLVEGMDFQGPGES
Assay: native gel or EMSA; cell-free assay: HEK293T S1 crude lysate with vRNA, 30 °C, 1 h; Native-PAGE and immunoblotting of IRF3
Conditions: remark: other sources report otherwise

- stoichiometry N: 2
B1: IRF3, Q14653 1-427 (natural protein)
chain: T1 chain
